# Key:
# [1] = biological target: Spa33^C, purified recombinant (S. flexneri); experiment: SEC; Spa33^C alone expressed in E. coli and purified by IMAC and Superdex 200 (20 mM Tris, 200 mM NaCl, pH 7.5); apparent homodimer
# [2] = biological target: MxiN with an N-terminal His6-tag, purified (S. flexneri) (UniProt Q6XVX6); experiment: BLI; His6-MxiN immobilised on Ni-NTA biosensor tips; untagged Spa33 at 400, 200, 100, 50, 25 and 12.5 µg/mL; PBS with 10% glycerol, 0.01% BSA, 0.002% Tween 20; 25°C; Octet RED96; 1:1 Langmuir model; KD from the equilibrium response (Req)
Substance,stoichiometry N [1],Kd [2] [nM]
"Spa33^C, purified recombinant (domain or fragment)",2,–
"Wild-type Spa33 heterotrimer (one Spa33^FL with two Spa33^C), purified, untagged (from UniProt P0A1K9 1-293) (complex)",–,550

# Source: paper PMC8211105
